Blank lines part the entries; values can stand above or below the binder they belong to.
B1: Fbx4G (Fbx4 GTPase domain, residues 162–387) (domain or fragment, human, UniProt Q9UKT5 162-387, looked up)
chain: GAVTSFLHSLIIQNEPRFAMFGPGLEELNTSLVLSLMSSEELCPTAGLPQRQIDGIGSGVNFQLNNQHKFNILILYSTTRKERDRAREEHTSAVNKMFSRHNEGDDQQGSRYSVIPQIQKVCEVVDGFIYVANAEAHKRHEWQDEFSHIMAMTDPAFGSSGRPLLVLSCISQGDVKRMPCFYLAHELHLNLLNHPWLVQDTEAETLTGFLNGIEWILEEVESKRAR
B2: TRF1_(TRFH) (TRFH domain of TRF1, residues 58–268), GST tag removed (domain or fragment, human, UniProt P54274 58-268, looked up)
chain: EEEEEDAGLVAEAEAVAAGWMLDFLCLSLCRAFRDGRSEDFRRTRNSAEAIIHGLSSLTACQLRTIYICQFLTRIAAGKTLDAQFENDERITPLESALMIWGSIEKEHDKLHEEIQNLIKIQAIAVCMENGNFKEAEEVFERIFGDPNSHMPFKSKLLMIISQKDTFHSFFQHFSYNHMMEKIKSYVNYVLSEKSSTFLMKAAAKVVESKR

Columns and labels:
[1] = biological target: B2; assay: crystal structure
crystal structure = biological target: the molecule itself; assay: crystal structure
[2] = biological target: B1; assay: pull-down

Binder: B1
stoichiometry N [1]: 1 Fbx4G per TRF1_TRFH (printed as 2:2)

Binder: B2
binding result (crystal structure): binds

binding result [2]: binds
B3: GST-TRF1_(TRFH) (domain or fragment, human, UniProt P54274 58-268, looked up)
chain: EEEEEDAGLVAEAEAVAAGWMLDFLCLSLCRAFRDGRSEDFRRTRNSAEAIIHGLSSLTACQLRTIYICQFLTRIAAGKTLDAQFENDERITPLESALMIWGSIEKEHDKLHEEIQNLIKIQAIAVCMENGNFKEAEEVFERIFGDPNSHMPFKSKLLMIISQKDTFHSFFQHFSYNHMMEKIKSYVNYVLSEKSSTFLMKAAAKVVESKR
